For assay [1], the target named is ancestral human TRPV6 (R157, V378, T681) (human). Kind of assay: cryo-EM structure.
The target of assay [2] is derived human TRPV6 (C157, M378, M681) (human). Kind of assay: cryo-EM structure.

The term stoichiometry N denotes the number of molecules, sites or subunits per partner or assembly.

Regarding “ancestral human TRPV6 (R157, V378, T681) (natural protein)”, the stoichiometry N in assay [1] came out at 4 subunits. In assay [2], “derived human TRPV6 (C157, M378, M681) (natural protein)” gave a stoichiometry N of 4. In turn, “endogenous calmodulin (CaM) (from UniProt P0DP23 1-149) (natural protein)” came in with a stoichiometry N (CaM per TRPV6 tetramer) in assay [1] of 1.

The record behind these values is article PMC11698656.
